From PMC4479705 (mBio, 2015)

Key:
[1] = target: recombinant factor H binding protein (FHbp) ID 1 (Neisseria meningitidis serogroup B …, UniProt Q9JXV4); assay: SPR
[2] = target: recombinant factor H binding protein (FHbp) ID 1 (Neisseria meningitidis) (UniProt Q9JXV4); assay: SPR
Sequence of recombinant factor H binding protein (FHbp) ID 1 (Neisseria meningitidis) (Q9JXV4 20-274): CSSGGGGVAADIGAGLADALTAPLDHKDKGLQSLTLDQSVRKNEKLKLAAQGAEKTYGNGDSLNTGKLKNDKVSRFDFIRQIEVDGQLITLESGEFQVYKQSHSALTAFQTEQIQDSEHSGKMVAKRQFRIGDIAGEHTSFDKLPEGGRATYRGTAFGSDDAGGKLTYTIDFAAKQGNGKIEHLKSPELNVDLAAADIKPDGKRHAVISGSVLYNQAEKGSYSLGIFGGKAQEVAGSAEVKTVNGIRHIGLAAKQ

Sequence of recombinant factor H binding protein (FHbp) ID 1 (Q9JXV4 20-274): as above

Binder	Kd [1] [nM]	koff [1] [s⁻¹]	kon [1] [M⁻¹ s⁻¹]	Kd [2] [nM]
human anti-FHbp Fab 2A (Fab, V domains shown) VH: QVQLQQSGSGLVKPSQTLSLTCTVSGGSINIGDRYWSWLRQSPGKGLEWIGYIDYSGDTYYNSSLKSRAAISIDTSNKQFSLKLSSVTAADTAVYYCARGSSDFSSGYFFDYWGQGTLVTVSS VL: ETTLTQSPATLSVSPGERAILSCRDSQSVSSNLAWYQQKPGQAPRLLIFGASTRATGIPARFSGSGSGTEFTLTISSLQSEDFAVYYCQQYNNWLSFGQGTKLEIK	115	0.061	530000	
human anti-FHbp Fab 10C (Fab, V domains shown) VH: QVQLVESGGGVVQPGRSLRLSCPASGFTFSRYALHWVRQAPGKGLEWVAVISFDGSFKYYADSVKGRFSISRDNFKNTLYLQMNSLRAEDTAVYYCAKDDTLHASGWGGFDYWGQGALVTVSS VL: EIVLTQSPATLSLSPGERATLSCRASQSVTSYLTWYQHKPGQAPRLLIYHTSYRATGIPARFSGSGSGTDFTLSITSLEPEDFAVYYCQQRSNWPFTFGPGTKVDIK	0.68	0.0005	930000	
human anti-FHbp Fab 5B (Fab, V domains shown) VH: EVQLLESGGGLVQPGGSLRLSCAASGYTFGSYAMTWVRQGPGKGLEWVSTILGSGADTYYADSVKGRFTISRDNSRNTLFMQLSSLRAEDTAVYYCAKLGYYDTWGQGTLVTVSS VL: EIVLTQSPATLSLSPGERATLSCRASQSIASYLYWYQQKPGQAPRLLIFDASNRATGTPARFSGSGSGTDFTLTISSLEPEDFAVYYCQQRNNWPRALTFGGGTKVEIK	10.6	0.0041	390000	
human anti-FHbp Fab 6B (Fab, V domains shown) VH: EVQLVESGGGLVQPGGSLRLSCAASGFTFSSYAMSWVRQAPGKGLEWVSAISGSGGSSHYTDSVKGRFTISRDNSKNTLWLQMNSLRAEDTAIYYCAKTSGSYYYHYEIDVWGQGTTVTVSS VL: EIVLTQSPGTLSLSPGERATLSCRASQSVSSSYLAWYQQKPGQAPRLLIYGTSNRATGIPDRFSGSGSGTDFTLTVSRLEPEDFAVYYCQQYGSSPCSFGQGTKLELK	0.82	0.0004	500000	
human anti-FHbp Fab 3C (Fab, V domains shown) VH: QVQLQESGPGLVKPSETLSLTCTVSGYSITRGYYWGWIRQPPGKGLEWIGGIYHSGTTYQNPSLRSRVTFSVDTSKNQFSLKLRSVTAADTAVYYCARDNYSSNLDYWGQGTMVTVSS VL: EIVLTQSPGTLSLSPGERATLSCRASQSVSSSYLAWYQQKAGQAPRLLIYGASSRATGIPERFSGSGSGTDFTLTISRLEPEDFAIYYCQQYGSSRFIFGPGTKVDIK	130	0.0032	30000	
control chimeric human-mouse anti-FHbp Fab 502 (Fab, V domains shown) VH: EVQLQESGPGLAKPSQTLSLTCSVTGYSITSDFWNWIRKFPGNKLEYMGYISYSGSTDYNPSLKSRISITRDTSKNQYYLQLNSVTAEDTATYYCARYFGSSYAMDHWGQGTSVTVSS VL: DIQMTQSPASLSASVGETVTITCRASGNIHNYLAWYQQKQGKSPQLLVYTAKTLAEGVPSRFSGSGSGTQFSLKINSLQPEDFGSYYCQHFWSTPWTFGGGTKLEIK	4.8	0.0053	1.09e+06	
human anti-FHbp Fab 8A (Fab, V domains shown) VH: QVQLVESGGGLVQPGGSLRLSCVTSGFTFRSYAMTWVRQAPGKGLEWVSSISHSGGSTKYADSVKGRLTISRDDSMDTLYLQMNSLRAEDTAIYYCAKDQISYPAASPLDYWGRGTLVTVSS VL: EIVLTQSPGTLSLSPGERATLSCRASQSFSSFSLAWYQQKPGQAPRLLIYAPSNRATGIADRFSGSGSGTDFTLTISRLEPEDFAVYYCQQYGSSPITFGQGTRLEIK	1.04	0.002	2.3e+06	
human anti-FHbp Fab 9B (Fab, V domains shown) VH: EVQLVQSGAELKKPGESLKISCKASGYTFTNYWVVWVRQMPGEGLEWMGSIHPRDSDARYSLSFEGRVTFSVDKSTTTAYLQWSSLKVSDSAIYYCARLSQVSGWSPWVGPWGQGTLVTVSS VL: DIVMTQSPSSLSASVGDRVTITCRASQSISVSLNWYQQKPGKAPKVLIYAASRLQSGIPSRFSGSGSGSHFTLTISSLQPEDFATYYCQETYSDLMYTFGQGTKVEIK	0.019	4e-05	1.85e+06	
human anti-FHbp Fab 4B (Fab, V domains shown) VH: EVQLVESGGGLAQPGGSLRLSCVASGSTFGSYAIYWVRQAPGKGLEWVSGISGSGTKIDYADSVKGRFTISRDISKNTLYLQMNSLRAEDTAVYYCAKLGFFDYWGQGTQVTVSS VL: EIVLTQSPDTLSLSPGERATLSCRASQSVSTYLFWYQKKPGQAPRLLIFDASNRATGIPVRFSGSGSGTDFTLTISSLEPEDFAVYYCQQRSNWPQTFGGGTKVEIK	0.86	0.0006	720000	
human anti-FHbp Fab 7B (Fab, V domains shown) VH: QVQLVQSGPEVKKPGASVKISCKTSGYTFTTNALYWVRQAPGQRPEWVGWLNTGNGNSKTSQNFQGRVTITRDTSASSTYMELSSLTFEDTAVYFCARRPSGDYNTYYFDFWGQGTLVTVSS VL: EIVMTQSPGTLSLSPGGRGTLSCRASESVSSSYISWYQHKSGQAPRLLIYGASSRATGIPDRFSGSGSGTDFTLTISRLEPEDFAVYYRQYFSGSKGLTFGPGTKVDIK				22.9
